Series [1] deals with T1, SaFapR (Staphylococcus aureus RN4220, UniProt Q2FZ56 1-190).
T1 sequence: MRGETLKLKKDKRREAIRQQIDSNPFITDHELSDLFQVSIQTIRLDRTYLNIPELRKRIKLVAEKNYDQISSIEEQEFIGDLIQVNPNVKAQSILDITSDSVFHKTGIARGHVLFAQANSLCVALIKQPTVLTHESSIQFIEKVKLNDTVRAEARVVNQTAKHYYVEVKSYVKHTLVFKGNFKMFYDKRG
Description: ITC; first dimer, sequential binding model, 25 C; ITC: 50 mM Tris-HCl pH 8, 150 mM NaCl, 25 C; EMSA: 20 mM Tris-HCl pH 8, 350 mM NaCl, 10 mM MgCl2, 5 mM DTT, 15 min room temperature, native 5% PAGE in 45 mM Tris-borate pH 8, 1 mM EDTA. The following applies: protein: recombinant; tags: N-terminal His-tag removed with TEV protease; chain copies: 2. (Isothermal titration calorimetry measures the heat released or taken up as one component is titrated into another.)

In series [2] the target is T1, SaFapR. In words: ITC; second dimer, sequential binding model, 25 C; ITC: 50 mM Tris-HCl pH 8, 150 mM NaCl, 25 C; EMSA: 20 mM Tris-HCl pH 8, 350 mM NaCl, 10 mM MgCl2, 5 mM DTT, 15 min room temperature, native 5% PAGE in 45 mM Tris-borate pH 8, 1 mM EDTA. The conditions noted are these: protein: recombinant; tags: N-terminal His-tag removed with TEV protease; chain copies: 2.

B1: PfapR operator 40 bp (dsDNA)
DNA 1: GCCAATTATATACTACTATTAGTACCTAGTCTTAATTCCG
DNA 2: CGGAATTAAGACTAGGTACTAATAGTAGTATATAATTGGC
The term Kd denotes the constant that tells how readily two partners part at equilibrium. Consider B1, for which the figures for the Kd in series [1] and in series [2] were 0.5 ± 0.1 nM and 51 ± 8 nM, respectively.

These data come from PMC3536700, “Structural Basis for Feed-Forward Transcriptional Regulation of Membrane Lipid Homeostasis in Staphylococcus aureus”.
